Laboratory results published in PMC10397247.

Tests used:
Test in all cases: two-hybrid library CCmax;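 note: natural log of median RNA to DNA barcode read ratio; higher means stronger binding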
[1] = molecular target: T1, Core_INNN-es_KEKE; conditions: mean of both orientations
T1 chain: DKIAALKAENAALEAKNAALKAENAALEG

[2] = molecular target: T2, Core_IIII-es_KKKE; conditions: mean of both orientations
T2 chain: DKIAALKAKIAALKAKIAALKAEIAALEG

[3] = molecular target: T3, Core_IIIN-es_KKKE; conditions: mean of both orientations
T3 chain: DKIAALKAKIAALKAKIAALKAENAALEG

[4] = molecular target: T4, Core_INII-es_KKKK
T4 chain: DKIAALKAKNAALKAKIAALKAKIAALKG

B1: Core_INNN-es_EKEK (peptide)
chain: DEIAALEAKNAALKAENAALEAKNAALKG
Work on B1 yielded an interaction score [1] of 2.

B2: Core_IIII-es_EEEK (peptide)
chain: DEIAALEAEIAALEAEIAALEAKIAALKG
Binder B2 has an interaction score [2] of 2.4.

B3: Core_IIIN-es_EEEK (peptide)
chain: DEIAALEAEIAALEAEIAALEAKNAALKG
B3 gave an interaction score [3] of 2.19.

B4: Core_INII-es_EEEE (peptide)
chain: DEIAALEAENAALEAEIAALEAEIAALEG
In the case of B4, the interaction score [4] is reported as 1.29.
